Laboratory results taken from patent publication US20210395344A1.
Positions count from the first letter of the chain named.

B1: 1-3 (antibody, V domains shown)
VH: EVQLLESGGGLVQPGGSLRLSCAASGFTFSSQAMSWVRQAPGKGLEWVSAISGSGGGTYYADSVKGRFTISRDNSKNTLYLQMNSLRAEDTAVYYCAKDRRFGEFDPWGQGTLVTVSS
VL: QSALTQPASVSGSPGQSITISCTGISSDVGSYNLVSWYQQHPGKAPKLMIYEGTKRPSGVSNRFSGSKSGNTASLTISGLQAEDEADYYCCSYAGSSSFVVFGGGTKLTVL
B2: 1-4 (antibody, V domains shown)
VH: B1 VH
VL: B1 VL with I25T, S31T, T54S, K55Q
B3: 1-28 (antibody, V domains shown)
VH: EVQLLESGGGLVQPGGSLRLSCAASGFTFSSYGMSWVRQAPGKGLEWVSAISGSGGGTYYADSVKGRFTISRDNSKNTLYLQMNSLRAEDTAVYYCASSSSWQFDYWGQGTLVTVSS
VL: B1 VL with I25T, D28G, T54S, K55Q, S98T, F99H, V100Y
B4: 1-30 (antibody, V domains shown)
VH: EVQLLESGGGLVQPGGSLRLSCAASGFTFSSYAMTWVRQAPGKGLEWVSAISGSGGSTFYADSVKGRFTISRDNSKNTLYLQMNSLRAEDTAVYYCTRPPYGDYGDYWGQGTLVTVSS
VL: B1 VL with I25T, S27R, S97R, S98T, F99P
B5: 1-32 (antibody, V domains shown)
VH: B4 VH with T35Y
VL: QSALTQPASVSGSPGQSITISCTGTSSDVGGYNLVSWYQQHPGKAPKLMIYEGNKRPSGVSNRFSGSKSGNTASLTISGLQAEDEADYYCCSYAGSSTFPVVFGGGTKLTVL
B6: 1-31 (antibody, V domains shown)
VH: B4 VH with T35N
VL: B1 VL with I25T, S31K, T54S, K55Q, S97R, S98T, F99P

Target: SARS-CoV-2 S protein trimer (SARS-CoV-2), P0DTC2
Assay: column DB/S-T (format not explained)
Settings: remark: other sources report otherwise

Row | Binder | Kd
1 | B1 | 423 nM
2 | B2 | 6.6 nM
3 | B3 | 13.4 nM

Target: SARS-CoV-2 S protein trimer (SARS-CoV-2), P0DTC2
Assay: column Fc/S-T (format not explained)
Settings: remark: other sources report otherwise

Row | Binder | Kd
4 | B1 | 10 nM
5 | B2 | 12.3 nM
6 | B3 | 8.6 nM

Target: SARS-CoV-2 S protein trimer (SARS-CoV-2), P0DTC2
Assay: column DC/S-T (format not explained)
Settings: remark: other sources report otherwise

Row | Binder | Kd
7 | B4 | 476000 nM
8 | B1 | 5310 nM
9 | B2 | 129 nM
10 | B3 | 96.6 nM

Target: COVID S1 RBD Fc fusion (Antigen 1) (SARS-CoV-2), P0DTC2
Assay: phage ELISA
Settings: remark: other sources report otherwise

Row | Binder | ELISA fold over background (fold over background)
11 | B4 | 1.7
12 | B1 | 1.8
13 | B5 | 1.5
14 | B2 | 1.4
15 | B6 | 1.3
16 | B3 | 1.1

Target: SARS-CoV-2 S protein trimer (SARS-CoV-2), P0DTC2
Assay: ELISA on coated S trimer; quantity not named
Settings: remark: other sources report otherwise

Row | Binder | S Trimer
17 | B4 | 4.02 nM
18 | B6 | 0.8 nM
